Laboratory results published in US20250205375A1, “HER3 RADIOIMMUNOTHERAPY FOR THE TREATMENT OF SOLID CANCERS” (ACTINIUM PHARMACEUTICALS, INC., priority 2023, published 2025).

Experiments:
PARP = details: cited from earlier work
[1] = test system: triple-negative breast cancers (TNBC); details: TNBC patients, cited from earlier work
[2] = test system: OVCAR5 cell line xenograft; experiment: Human OVCAR5 cell line xenograft ovarian cancer mouse model, tumor growth; format: in vivo; details: 10 mg/kg on day 1
Experimental: (§1) FIG. 17A is a graph showing the effects on tumor growth in a human OVCAR5 cell line xenograft ovarian cancer mouse model for ^225Ac-labeled HER3 antibody, in a single dose of 0.2 μCi or 0.4 μCi, versus standard of care Bevacizumab (10 mg/kg), ^225Ac-labeled non-specific IgG control (0.4 μCi), and naked (cold) HER3 mAb control (10 μg). All agents/controls were dosed on day 1.
as §1, with “17B” for “17A”, “^177Lu-labeled” for “^225Ac-labeled”, “200” for “0.2”, “400” for “0.4”, “(400” for “(0.4”

total HER3 = molecular target: T1, total HER3 (Homo sapiens, UniProt P21860); details: 40 mg/kg; cited from earlier work
T1 construct: host or cells: tumour biopsies of patients

HER3 = HER3 (Homo sapiens, UniProt P21860); details: cited from earlier work
HER3-expressing tumors = details: 0.1 mg/kg and 0.3 mg/kg; cited from earlier work
surface HER3 = molecular target: T2, surface HER3 (Homo sapiens, UniProt P21860); details: across all dose levels tested (100-2000 mg); cited from earlier work
T2 construct: host or cells: tumour biopsies of patients

human recombinant HER3 = human recombinant HER3 (human, UniProt P21860 20-643); experiment: ELISA, plate coated with human recombinant HER3, serial dilutions 0-100 µg/ml, anti-human IgG F(ab')2-HRP secondary
Experimental: A secondary antibody (Goat Anti-human IgG F (ab′) 20-HRP) was added and incubated for 30 min on ice followed by color development using […] for 10 min.

[3] = test system: ACHN human renal cancer cells xenograft; experiment: ACHN human renal cell carcinoma xenograft in Balb/c nude mice, tumor growth; format: in vivo, mouse; details: 100 μg on day 1, intravenously
Experimental: In more detail, the experiment was performed as follows. Female Balb/c nude mice were subcutaneously injected with 5×10^6 ACHN human renal cancer cells (ATCC; CRL-1611). […] Drug treatments were administered orally for vehicle (PBS) and tivozanib or intravenously for unlabeled/unconjugated HER3 monoclonal antibody (HER3), HER3-ARC (Actinium-225 labeled HER3 antibody) and HER3-ADC (patritumab deruxtecan). Single agents or combinations were dosed as follows: vehicle (daily for 14 days), unlabeled/unconjugated HER3 antibody (100 μg on day 1), HER3-ADC (3 mg/kg on day 1 and 21), HER3-ARC (0.4 μCi on day 1 and 0.2 μCi on day 21), tivozanib (0.3 mg/kg daily for 14 days), tivozanib (0.3 mg/kg daily for 14 days) with HER3-ARC (0.4 μCi on day 16), and HER3-ARC (0.4 μCi on day 1) with tivozanib (0.3 mg/kg starting day 3, daily for 14 days). […] HER3-ARC was always administered in a total protein dose of 50 μg irrespective of the radiation dose. Tumor volumes were measured twice weekly by caliper and body weights were monitored. The mean tumor volume for each group was analyzed and graphed using GraphPad Prism software and statistical analysis is performed with Tukey's multiple comparisons test.

[4] = test system: DU145 human prostate cancer line; experiment: Fluorescence flow cytometry cell binding assay, DU145
Excerpt: (§2) FIG. 14 is a graph showing the fluorescence flow cytometry cell binding assay results for naked (unlabeled) and DOTA-conjugated (specifically, p-SCN-Bn-DOTA-conjugated) anti-HER3 antibodies AT02 and AV-203, versus nonstained control, secondary antibody (SA) only control, and non-specific IgG primary antibody control, for three human prostate cancer lines, DU145, 22RV1 and LnCAP.

[5] = test system: 22RV1 human prostate cancer line; experiment: Fluorescence flow cytometry cell binding assay, 22RV1
Excerpt: as §2

[6] = test system: LnCAP human prostate cancer line; experiment: Fluorescence flow cytometry cell binding assay, LnCAP
Excerpt: as §2

Molecule: NC(=O)c1cccc2cn(-c3ccc([C@@H]4CCCNC4)cc3)nc12 [niraparib]
- IC50 values (PARP): nanomolar range

Molecule: O=C(c1cc(Cc2n[nH]c(=O)c3ccccc23)ccc1F)N1CCN(C(=O)C2CC2)CC1 [olaparib]
- disease stabilization rate ([1]; BRCA1/2-mutant vs non-mutant): higher disease stabilization rate in BRCA1/2-mutant compared to non-mutant patients
- sustained responses ([1]; either cohort): no sustained responses

Molecule: CNCc1ccc(-c2[nH]c3cc(F)cc4c3c2CCNC4=O)cc1 [rucaparib]
- IC50 values (PARP): nanomolar range

Molecule: Cn1ncnc1[C@H]1c2n[nH]c(=O)c3cc(F)cc(c23)N[C@@H]1c1ccc(F)cc1 [talazoparib]
- IC50 values (PARP): picomolar range

Molecule: C[C@]1(c2nc3c(C(N)=O)cccc3[nH]2)CCCN1 [veliparib]
- IC50 values (PARP): nanomolar range

Molecule: Bevacizumab: standard of care agent; VEGF inhibitor [reference compound]
- antitumor efficacy (tumor growth) [2]: minimal effect

Molecule: LJM716: HER3-targeting antibody from Novartis
- decrease in total HER3 levels, paired tumor biopsy samples (total HER3): three out of five

Molecule: lumretuzumab: HER3 antibody from Roche
- downregulation of HER3 (HER3; 1-10 mg/kg): dose-dependent
- HER3 target downregulation (HER3; lowest dose 0.3 mg/kg): did not result in HER3 target downregulation
- control of HER3-expressing tumors (HER3-expressing tumors): ineffective
- downregulation of surface HER3 in serial tumor biopsies (surface HER3): 92 % of patients

B1: 225Ac-HER3-ARC (Actinium-225 labeled, p-SCN-Bn-DOTA-conjugated anti-HER3 IgG monoclonal antibody, heavy chain SEQ ID NO:77 and light chain SEQ ID NO:78) (antibody, V domains shown)
VH: QVQLVESGGGLVKPGGSLRLSCAASGFTFSDYAMSWIRQAPGKGLEWVSTISDGGTYTYYPDSVKGRFTISRDNAKNSLYLQMNSLRAEDTAVYYCAREWGDYDGFDYWGQGTLVTVSS
VL: DIQMTQSPSSLSASVGDRVTITCRASQEISGYLSWYQQKPGKAPKRLIYAASTLDSGVPSRFSGSGSGTEFTLTISSLQPEDFATYYCLQYDSYPYTFGQGTKLEIKR
modifications: conjugated to the chelator DOTA using p-SCN-Bn-DOTA and radiolabeled via chelation with Actinium-225; sites of conjugation not stated
notes: Antibody radioconjugate of m1; also called Ac225 labeled DOTA-conjugated anti-HER3 monoclonal antibody
- EC50 (human recombinant HER3): 1.7 ng/mL

B2: anti-HER3 IgG monoclonal antibody consisting of heavy chain SEQ ID NO:77 and light chain SEQ ID NO:78 (unmodified) (antibody, V domains shown)
VH: QVQLVESGGGLVKPGGSLRLSCAASGFTFSDYAMSWIRQAPGKGLEWVSTISDGGTYTYYPDSVKGRFTISRDNAKNSLYLQMNSLRAEDTAVYYCAREWGDYDGFDYWGQGTLVTVSS
VL: DIQMTQSPSSLSASVGDRVTITCRASQEISGYLSWYQQKPGKAPKRLIYAASTLDSGVPSRFSGSGSGTEFTLTISSLQPEDFATYYCLQYDSYPYTFGQGTKLEIKR
notes: IgG; Detected with an anti-human IgG secondary antibody; also called unmodified anti-HER3 mAb; unmodified anti-HER3 antibody
- EC50 (human recombinant HER3): 2.2 ng/mL

B3: AV-203: anti-HER3 monoclonal antibody from AVEO Oncology; heavy chain variable region SEQ ID NO:21, light chain variable region SEQ ID NO:22 (antibody, V domains shown)
VH: QVQLVESGGGLVKPGGSLRLSCAASGFTFSDYAMSWIRQAPGKGLEWVSTISDGGTYTYYPDSVKGRFTISRDNAKNSLYLQMNSLRAEDTAVYYCAREWGDYDGFDYWGQGTLVTVSS
VL: DIQMTQSPSSLSASVGDRVTITCRASQEISGYLSWYQQKPGKAPKRLIYAASTLDSGVPSRFSGSGSGTEFTLTISSLQPEDFATYYCLQYDSYPYTFGQGTKLEIK
- tumor growth (mean tumor volume) [3]: no effect on tumor growth
- cell binding [4]: specifically and comparably bound
- cell binding [5]: specifically and comparably bound
- cell binding [6]: specifically and comparably bound

B4: DOTA conjugated AV-203 (conjugate)
VH: QVQLVESGGGLVKPGGSLRLSCAASGFTFSDYAMSWIRQAPGKGLEWVSTISDGGTYTYYPDSVKGRFTISRDNAKNSLYLQMNSLRAEDTAVYYCAREWGDYDGFDYWGQGTLVTVSS
VL: DIQMTQSPSSLSASVGDRVTITCRASQEISGYLSWYQQKPGKAPKRLIYAASTLDSGVPSRFSGSGSGTEFTLTISSLQPEDFATYYCLQYDSYPYTFGQGTKLEIK
- cell binding [4]: specifically and comparably bound
- cell binding [5]: specifically and comparably bound
- cell binding [6]: specifically and comparably bound
